Results reported in the RNAGym collection of RNA variant scans (doi:10.1073/pnas.2313332121).
Fewer inactive variants are shown than the library holds.

B1: TPR 5TU (parent)
chain: GGAUCUUCUCGAUCUAACAAAAAAGACAAAUCUGCCACAAAGCUUGAGAGCAUCUUCGGAUGCAGAGGCGGCAGCCUUCGGUGGCGCGAUAGCGCCAACGUUCUCAACUAUGACACGCAAAACGCGUGCUCCGUUGAAUGGAGUUUAUCAUG

Variants of: B1
Assay: polymerase ribozyme fitness, log enrichment relative to wild type (log ratio); higher = more active; in vitro selection for triplet polymerase activity
How it was run: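 Input and output libraries were sequenced on Illumina after a single in vitro selection round, run in triplicate on PCR-built, transcribed mutant libraries of each subunit of a heterodimeric triplet polymerase ribozyme. Selection annealed libraries to a biotinylated primer, the partner subunit and triplets, incubated them frozen at −7 °C, then gel-excised extended constructs for streptavidin-bead capture and RT-PCR. Genotypes with ≥10 input reads and ≥1 read per output were kept. Fitness is the logarithm, taken in base 2, of genotype enrichment divided by wild-type enrichment, using inverse-variance-weighted replicate averages.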

Row | Variant | polymerase ribozyme fitness (log ratio)
1 | A73U C85A A147C | -2.75
2 | C75G C76U A97U G141C | ≤ -4.2
3 | A73G G92A C132U G141C | ≤ -4.2
4 | C72U C93U A97U A115U | -3.88
5 | C75A A89U G143C | ≤ -4.2
6 | A73G C93G U130C | -3.08
7 | C72U C85U C95U | -0.261
8 | A73G U101C | 0.659
9 | A73G G126A | -0.377
10 | A73G G143A | -0.82
11 | G70A C99U U134G G140C G143C | ≤ -4.2
12 | A73G U78A C116A A138G | ≤ -4.2
13 | C75G A106C C108A | ≤ -4.2
14 | G71C C87A G128U C131U G152U | ≤ -4.2
15 | C75G C96U | -3.61
16 | C75G C96A | -3.52
17 | C75G G84A A107U A121U U151C | ≤ -4.2
18 | A73G A122U G126U | -0.405
19 | A73U A97G U130G | ≤ -4.2
20 | C72G G83A G100A | ≤ -4.2
21 | A73U G83C C123G | -2.93

Row | Variant | polymerase ribozyme fitness (log ratio)
22 | C72U A89U A122U U146A | -0.532
23 | G74C G83A C95U G136A | ≤ -4.2
24 | A73G C85A G124A | -1.16
25 | A73U C108A A110C G133A | ≤ -4.2
26 | G74A A91C A115U G141A A147C U148G | ≤ -4.2
27 | A73G G83C | -2.56
28 | A73U G84U G152A | -3.83
29 | A73G C85G | -1.1
30 | A73G G86A A98U G117U C149U | -4.18
31 | C72G A91G C99G U144A | ≤ -4.2
32 | C69U C76G U130A | ≤ -4.2
33 | G70U G92U A98G A147C | ≤ -4.2
34 | C75A U90C C95U A107G U127G G141C | ≤ -4.2
35 | G70A C93A C103G | ≤ -4.2
36 | G71U C85G U134G U139G | ≤ -4.2
37 | G74C C99U A142U U146A | ≤ -4.2
38 | C69U A98U | -1.15
39 | A73U C87U G92A | 0.224
40 | C75G G84U | ≤ -4.2
41 | A73C A142C | ≤ -4.2
42 | A73G U77G C103G G136U | ≤ -4.2

Row | Variant | polymerase ribozyme fitness (log ratio)
43 | A73U G84C C116A | -2.63
44 | A73G C96U | -0.103
45 | C72G U101G | ≤ -4.2
46 | C72A C93G C95G | ≤ -4.2
47 | A73U A91U A106C G136C | ≤ -4.2
48 | A73G G92C | -0.498
49 | A73G A98G | 0.461
50 | G71U A73U A97G U145G | ≤ -4.2
51 | A73C | -2.13
52 | A73U | -0.424
53 | A73G | 0.127
54 | C72A C125U | ≤ -4.2
55 | G74C A147C | -4.06
56 | A73G G141A | -0.252
57 | G70C G94C | -3.44
58 | A73G U134C | 0.53
59 | A73G A98G U146G | -1.02
60 | G71A A107U G133C | ≤ -4.2
61 | C75A C87A G88A | ≤ -4.2
62 | G71C C116U | -2.51
63 | G70C G80A A91U U104C A120U | ≤ -4.2

Row | Variant | polymerase ribozyme fitness (log ratio)
64 | G74A A115C | -3.73
65 | G70C G80A | -3.94
66 | G71C A73C C108U U146C C149G | ≤ -4.2
67 | C75G C93A A113U A142G | -4.17
68 | A73U G84A | -2.32
69 | C69U C85U | -1.39
70 | C72G C93G C95U C118G A138C U145A | ≤ -4.2
71 | C72G C99U U101G A142U | ≤ -4.2
72 | G74A G84A A107G | ≤ -4.2
73 | G71C U77A U90C C103A U104G C131G | ≤ -4.2
74 | G74C G81C | -3.94
75 | C72U A73U G83A | -2.51
76 | C69U G86U C114U G141U | ≤ -4.2
77 | G74A C114U | -3.85
78 | G70C A97G | -3.97
79 | A73U C96U G112A | ≤ -4.2
80 | C69U C93U | -2.33
81 | C72U G124A U146G | -1.3
82 | C72U A98U | 0.351
83 | A73C G141A | -3.8
84 | A73G G80U G94U U102C U127C | ≤ -4.2
